From FireProtDB (doi:10.1111/j.1432-1033.1994.tb18652.x) come the findings set out here.

For this data set the following is noted: Aspergillus oryzae (strain ATCC 42149 / RIB 40), pH 6, Thermal, DSC, sodium acetate calcium acetate 20 mM 2 mM, Mops 50 mM, reversible: yes, whole UniProt chain shown.

B1: Guanyl-specific ribonuclease T1 wild type, P00651 (protein)
chain: MMYSKLLTLTTLLLPTALALPSLVERACDYTCGSNCYSSSDVSTAQAAGYQLHEDGETVGSNSYPHKYNNYEGFDFSVSSPYYEWPILSSGDVYSGGSPGADRVVFNENNQLAGVITHTGASGNNFVECT
As usually defined, the Tm is the temperature at which the thermal transition is half complete. As to B1, the Tm is 57.2 °C and the “unfolding enthalpy (calorimetric)” value was found to be 96.6 kcal/mol. Where the note is “25 °C”, the “heat capacity change of unfolding” value worked out at 0.98 kcal/mol/K and the unfolding free energy came to 7.82 kcal/mol.
